Assay [1] addresses human PD-L1 on CHO-K1 cells (human, UniProt Q9NZQ7 19-290). Briefly: cell-based or functional assay.
In assay [2] the target is T1, recombinant human PD-L1 His protein (human, UniProt Q9NZQ7 19-239).
T1 construct: not shown: His tag
Briefly: SPR Biacore T200, PD-L1 His on chip, sdAb analyte. The method, then:
Affinity constant (Kd) of each sdAb and HCAb was determined by surface plasmon resonance (SPR) on a BIAcore T200 instrument. Briefly, PD-L1 His was amine-coupled to a CMS sensor chip at a density of no higher than 100 RU. […] Flow rate was 30 μl/min in all experiments. Association and dissociation phases were 5 and 10 min, respectively. The chip was regenerated using Glycine/HCl pH 1.5. Binding curves at different concentrations of sdAbs and HCAbs were used to calculate the kinetic parameters kₒₙ, koff and KD.
(SPR reads the build-up and loss of mass on a sensor chip optically.)

For assay [3], the target named is PD-L1 (blocking assay of Example 11) (UniProt Q9NZQ7 19-239, limits assumed). Kind of assay: cell-based or functional assay.
Assay [4] concerns the target T2, recombinant human SIRPα variant 2 protein (human, UniProt P78324 31-370, limits assumed).
T2 construct: polymorphic variant 2; also called SIRPα v2; hSIRPαV2
Briefly: SPR Biacore 8K, antibody captured, antigen analyte. As for the experimental part:
The binding kinetics assay of antibody to antigen was performed using Biacore 8K system through human antibody capture approach. The […] Fc lgG were immobilized on CM5 sensor chip according to the manufactory's instruction. The test antibody was injected and captured by the immobilized anti-human Fc lgG. […] The assay system was regenerated by injection of 10 mM Glycine-HCl pH 1.5 for 30 seconds. The running buffer was HBS-EP+ (10 mM HEPES, pH 7.4, 150 mM NaCl, 3 mM EDTA and 0.05% P20). The assay temperature was 25° C., and the association and dissociation time were 180 and 600 seconds, respectively.

T1 sequence (Q9NZQ7 19-239 limits assumed): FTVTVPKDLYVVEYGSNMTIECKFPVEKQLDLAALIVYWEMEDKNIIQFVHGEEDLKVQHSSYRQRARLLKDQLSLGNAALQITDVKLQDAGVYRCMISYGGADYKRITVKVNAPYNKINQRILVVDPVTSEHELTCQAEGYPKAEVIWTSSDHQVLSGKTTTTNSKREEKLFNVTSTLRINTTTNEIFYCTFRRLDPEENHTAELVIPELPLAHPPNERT
Chain of PD-L1 (blocking assay of Example 11) (Q9NZQ7 19-239 limits assumed): as above
Chain of human PD-L1 on CHO-K1 cells (Q9NZQ7 19-290): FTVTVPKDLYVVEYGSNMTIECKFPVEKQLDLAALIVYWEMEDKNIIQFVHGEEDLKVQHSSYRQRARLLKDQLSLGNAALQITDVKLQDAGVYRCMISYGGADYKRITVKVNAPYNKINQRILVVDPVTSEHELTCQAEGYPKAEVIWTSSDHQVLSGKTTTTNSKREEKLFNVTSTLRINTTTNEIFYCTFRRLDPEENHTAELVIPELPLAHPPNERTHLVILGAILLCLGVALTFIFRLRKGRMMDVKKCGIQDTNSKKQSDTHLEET
T2 sequence (P78324 other isoform, or with tags, fused parts or gaps mutant limits assumed): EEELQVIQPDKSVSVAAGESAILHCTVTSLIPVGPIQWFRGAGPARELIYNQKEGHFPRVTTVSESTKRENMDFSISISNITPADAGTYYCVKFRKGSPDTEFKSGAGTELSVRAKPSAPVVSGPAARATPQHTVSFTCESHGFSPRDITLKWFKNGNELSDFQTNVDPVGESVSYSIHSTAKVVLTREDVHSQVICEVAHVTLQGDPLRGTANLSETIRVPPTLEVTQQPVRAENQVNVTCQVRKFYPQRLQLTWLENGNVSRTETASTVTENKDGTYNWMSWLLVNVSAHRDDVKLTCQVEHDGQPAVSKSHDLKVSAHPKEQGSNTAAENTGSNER

B1: AS06686 sdAb (VHH)
VHH: AVQLVESGGGLVQAGDSLRLACAASGRTFLTYALGWFRQAPGKEREFVAGVSWSGSSTKYADSVKGRFTISRDNAKNTVYMQMNSLKPEDTAVYYCAAQISAIVPISAHEYQYWGQGTQVTVSS
notes: His6-tagged llama sdAb
On to B1, for which, in assay [1], the “EC50 of PD-L1-based blockade assay (luciferase reporter)” value (“EC50 of PD-L1-based blockade assay” for short) is 352 nM. Further, in assay [2], the Kd (commonly the concentration at which binding is half-saturated) turned out to be 0.346 nM; the dissociation rate constant (koff) (usually a measure of how fast the partners let go of each other) was determined as 0.000965 s⁻¹; the kon (in general, the second-order rate constant of association) came out at 2.79e+06 M⁻¹ s⁻¹.

B2: PD-L1/SIRPa-HC2 (bispecific antibody, human IgG4 S228P, kappa)
heavy: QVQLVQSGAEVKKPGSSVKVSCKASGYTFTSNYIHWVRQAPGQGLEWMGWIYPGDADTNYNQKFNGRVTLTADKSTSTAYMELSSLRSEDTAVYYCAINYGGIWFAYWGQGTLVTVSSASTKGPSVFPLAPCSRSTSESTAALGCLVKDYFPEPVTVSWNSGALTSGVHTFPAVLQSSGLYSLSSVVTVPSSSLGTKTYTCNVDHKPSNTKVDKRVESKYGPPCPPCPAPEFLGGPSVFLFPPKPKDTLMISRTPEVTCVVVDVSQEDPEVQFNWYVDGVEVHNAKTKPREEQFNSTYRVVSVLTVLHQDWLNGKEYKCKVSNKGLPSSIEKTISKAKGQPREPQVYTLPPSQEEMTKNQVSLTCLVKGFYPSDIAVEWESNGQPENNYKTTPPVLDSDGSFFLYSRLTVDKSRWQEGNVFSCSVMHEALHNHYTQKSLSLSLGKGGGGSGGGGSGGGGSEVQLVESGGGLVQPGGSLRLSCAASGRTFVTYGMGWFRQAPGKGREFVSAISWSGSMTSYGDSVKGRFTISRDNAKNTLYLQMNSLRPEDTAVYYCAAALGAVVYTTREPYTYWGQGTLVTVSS
light: DIQMTQSPSSLSASVGDRVTITCQASQDIGNKLIWYQQKPGKAPKLLIYYVTNLPGGVPSRFSGSGSGTDFTLTISSLQPEDFATYYCLQYKQNPLTFGQGTKLEIKRTVAAPSVFIFPPSDEQLKSGTASVVCLLNNFYPREAKVQWKVDNALQSGNSQESVTEQDSKDSTYSLSSTLTLSKADYEKHKVYACEVTHQGLSSPVTKSFNRGEC
Turning to B2, the “EC50, luminescence (RLU) in the PD-1/PD-L1 Blockade Assay” value (from here on “EC50, luminescence (RLU)”) in assay [3] turned out to be 1.28 nM.

B3: PD-L1/SIRPa-LN1 (bispecific antibody, human IgG4 S228P, kappa)
heavy: not shown
light: EVQLVESGGGLVQPGGSLRLSCAASGRTFVTYGMGWFRQAPGKGREFVSAISWSGSMTSYGDSVKGRFTISRDNAKNTLYLQMNSLRPEDTAVYYCAAALGAVVYTTREPYTYWGQGTLVTVSSGGGGSGGGGSGGGGSEIVLTQSPGTLSLSPGERATLSCRASSSVSSSYLYWYQQKPGQAPRLLIYSTSNLASGIPDRFSGSGSGTDYTLTISRLEPEDAAVYFCHQWYSYPRTFGGGTKVEIKRTVAAPSVFIFPPSDEQLKSGTASVVCLLNNFYPREAKVQWKVDNALQSGNSQESVTEQDSKDSTYSLSSTLTLSKADYEKHKVYACEVTHQGLSSPVTKSFNRGEC
Regarding B3, in assay [3], the “EC50, luminescence (RLU)” value was found to be 1.13 nM.

B4: PD-L1/SIRPa-LC1 (bispecific antibody, human IgG4 S228P, kappa)
heavy: not shown
light: EIVLTQSPGTLSLSPGERATLSCRASSSVSSSYLYWYQQKPGQAPRLLIYSTSNLASGIPDRFSGSGSGTDYTLTISRLEPEDAAVYFCHQWYSYPRTFGGGTKVEIKRTVAAPSVFIFPPSDEQLKSGTASVVCLLNNFYPREAKVQWKVDNALQSGNSQESVTEQDSKDSTYSLSSTLTLSKADYEKHKVYACEVTHQGLSSPVTKSFNRGECGGGGSGGGGSGGGGSEVQLVESGGGLVQPGGSLRLSCAASGRTFVTYGMGWFRQAPGKGREFVSAISWSGSMTSYGDSVKGRFTISRDNAKNTLYLQMNSLRPEDTAVYYCAAALGAVVYTTREPYTYWGQGTLVTVSS
B4: the “EC50, luminescence (RLU)” value in assay [3] came out at 1.36 nM.

B5: AS06750 sdAb (VHH)
VHH: AVQLVESGGGLVQAGDSLRLSCTASGRTFLTYAVGWFRQAPGTEREFVAGIRWSGGYTDYADSVKGRFTISRDNAKNTVYLQMNSLKPEDTAVYYCAAHRTIATIPEKYEYEYWGQGTQVTVSS
notes: His6-tagged llama sdAb
Consider B5, for which the “EC50 of PD-L1-based blockade assay” value in assay [1] worked out at 33.6 nM. Moreover, in assay [2], the Kd came to 0.109 nM, the koff came out at 0.000223 s⁻¹ and the kon worked out at 2.05e+06 M⁻¹ s⁻¹.

B6: AS06618 sdAb (VHH)
VHH: EVQLVESGGRLVRAGDSLRLSCAASGRTFLSYAVGWFRQAPGTEREFVAGIRWSGGYTDYAEAVKGRFTISRDNAKNTVYLQMNSLKPEDTAVYYCAAHRTIATIPEKYEYEYWGQGTQVTVSS
notes: His6-tagged llama sdAb
In the case of B6, the “EC50 of PD-L1-based blockade assay” value in assay [1] turned out to be 44.5 nM. Further, in assay [2], the Kd was 0.17 nM, the koff turned out to be 0.000245 s⁻¹ and the kon came out at 1.44e+06 M⁻¹ s⁻¹.

B7: AS06617 sdAb (VHH)
VHH: DVQLVESGGGLVQAGDSLRLSCAASGRTFISYAVGWFRQAPGSEREFVAGIRWNGIHTDYADSVKGRFTISRDNAKNTVTLEMTSLKPEDTAVYYCAAHRTIATIPEKYEYEYWGQGTQVTVSS
notes: His6-tagged llama sdAb
As to B7, the “EC50 of PD-L1-based blockade assay” value in assay [1] stood at 63.8 nM. For the same molecule, in assay [2], the Kd was 0.249 nM, the koff turned out to be 0.000464 s⁻¹ and the kon is 1.86e+06 M⁻¹ s⁻¹.

B8: AS06775 sdAb (VHH)
VHH: QVQLVESGGGLVQAGDSLRLSCAASGRTFLTLAVGWFRQAPGTEREFVAGIRWSGSGTDYADSVKGRFTISRDNAKNTVYLQMNSLKPEDTAVYYCAAHTTIATIPEKYEYEYWGRGTQVTVSS
notes: His6-tagged llama sdAb
For the molecule B8, in assay [1], the “EC50 of PD-L1-based blockade assay” value amounted to 75.5 nM. In addition, in assay [2], the Kd was 0.156 nM, the koff came out at 0.000247 s⁻¹ and the kon is 1.58e+06 M⁻¹ s⁻¹.

B9: AS12003 sdAb (VHH)
VHH: EVQLVESGGGLVQAGDSLRLSCAASGRTFLSYAVGWFRQAPGTEREFVAGIRWSGGSTDYADSVKGRFTISRDNAKNTVYLQMNSLKPEDTAVYYCAAHRTIATVPNKYEYDTWGQGTQVTVSS
notes: His6-tagged llama sdAb
B9: the “EC50 of PD-L1-based blockade assay” value in assay [1] amounted to 96.2 nM. For the same molecule, in assay [2], the Kd was found to be 0.56 nM, the koff was 0.00155 s⁻¹ and the kon stood at 2.76e+06 M⁻¹ s⁻¹.

B10: AS06682 sdAb (VHH)
VHH: AVQLVESGGGLVQAGDSLRLSCTASGRTFLSYAVGWFRQAPGTEREFVAGIRWSGEHTDYAASVKGRFTISRDNAKNTVYLQMNSLKPEDTAVYYCAAHTTIATIPKKYEYEYWGQGTQVTVSS
notes: His6-tagged llama sdAb
With B10, the “EC50 of PD-L1-based blockade assay” value in assay [1] came out at 42 nM. Besides, in assay [2], the Kd came out at 0.203 nM, the koff amounted to 0.000342 s⁻¹ and the kon worked out at 1.68e+06 M⁻¹ s⁻¹.

B11: HSP210-02-hz52 (antibody, V domains shown)
VH: QVQLVQSGAEVKKPGASVKVSCKASGFNFEDTYMHWVRQAPGQGLEWMGRIDPADADTKYNPKFQDRVTITVDTSTNTAYMELSSLRSEDTAVYYCVRGNYVNWGQGTTVTVSS
VL: EIVLTQSPGTLSLSPGERATLSCRASSSVSSSYLYWYQQKPGQAPRLLIYSTSNLASGIPDRFSGSGSGTDYTLTISRLEPEDAAVYFCHQWYSYPRTFGGGTKVEIK
notes: humanized 248G3F6, VH v5 + VL v2; also called SIRPa IgG#1 02-hz52
Regarding B11, in assay [4], the Kd amounted to 7.4 nM, the off-rate constant (koff) is 0.00247 s⁻¹ and the kon worked out at 333000 M⁻¹ s⁻¹.

B12: AS11948 sdAb (VHH)
VHH: EVQLVESGGGLVQAGDSLRLSCVASGRTFVTYGMGWFRQAPGKEREFVAAINWSGSMTSYGDSVKGRFAISRDNAKNTVYLQMNSLKPEDTAVYYCAAALGAVVYTTREPYTYWGRGTQVTVSS
notes: His6-tagged llama sdAb
For the molecule B12, the “EC50 of PD-L1-based blockade assay” value in assay [1] was found to be 25.2 nM. In addition, in assay [2], the Kd stood at 0.167 nM, the koff was determined as 0.000394 s⁻¹ and the kon came out at 2.37e+06 M⁻¹ s⁻¹.

B13: AS06778 sdAb (VHH)
VHH: QVQLVESGGGLVQAGGSLKLSCAASGRTFITYAMGWFRQAPGKERELVAAISWSGSSTYSADSVKGRFTISRDNAKNTVYLQMNSLKPEDTAVYYCAAEVSARTGEHLPKLMGDYWGQGTQVTVSS
notes: His6-tagged llama sdAb
Turning to B13, the “EC50 of PD-L1-based blockade assay” value in assay [1] came to 20.1 nM. In addition, in assay [2], the dissociation constant Kd is 0.0233 nM, the koff was determined as 4.42e-05 s⁻¹ and the association rate constant (kon) is 1.9e+06 M⁻¹ s⁻¹.

B14: AS06628 sdAb (VHH)
VHH: QVQLVESGGGLVQAGGSLRLSCAASGRTFITYAIGWFRQAPGKEREFVTAINWSGSMTSYADSVKGRFTISRDNNKNMVYLQMNSLKPEDTAVYYCAAHRGAIAPMTQSVYDYWGQGTQVTVSS
notes: His6-tagged llama sdAb
B14: the “EC50 of PD-L1-based blockade assay” value in assay [1] was 24.2 nM. For the same molecule, in assay [2], the dissociation constant Kd stood at 0.0526 nM, the koff is 0.000215 s⁻¹ and the kon was determined as 4.1e+06 M⁻¹ s⁻¹.

B15: AS06791 sdAb (VHH)
VHH: QVQLVESGGGLVQAGGSLRLSCAASGRTFITYAIGWFRQAPGKEREFVTAINWSGSMTSYADSVKGRFTISRDNAKNTVYLQINGLKSEDTAVYYCAAHRGAIAPMTQSVYDYWGQGTQVTVSS
notes: His6-tagged llama sdAb
On to B15, for which, in assay [1], the “EC50 of PD-L1-based blockade assay” value was determined as 36.5 nM. In addition, in assay [2], the Kd was 0.153 nM, the koff was 0.000239 s⁻¹ and the kon came to 1.56e+06 M⁻¹ s⁻¹.

B16: AS06730 sdAb (VHH)
VHH: QVQLVESGGGLVQAGGSLRLSCAASGRTFITYAIGWFRQAPGKEREFVSAINWSGSMTSYADSVKGRFTISRDNAKNTVYLQMNGLKPEDTAVYYCAAHRGAIAPIAQSVYTNWGQGTQVTVSS
notes: His6-tagged llama sdAb
For the molecule B16, the “EC50 of PD-L1-based blockade assay” value in assay [1] was 17.2 nM. In addition, in assay [2], the Kd stood at 0.0195 nM, the koff stood at 0.000139 s⁻¹ and the kon was determined as 7.11e+06 M⁻¹ s⁻¹.

B17: AS06703 sdAb (VHH)
VHH: EVQLVESGGGLVRAGGSLRLSCAASGRTFITYAIGWFRQAPGKEREFVTAINWSGSMTSYADSVKGRFTISRDNNKNTVYLQMNSLKPEDTALYYCAAHLGAIAPMSQSVYDYWGQGTQVTVSS
notes: His6-tagged llama sdAb
As for B17, the “EC50 of PD-L1-based blockade assay” value in assay [1] is 15 nM. In addition, in assay [2], the Kd came out at 0.0387 nM, the koff amounted to 6.96e-05 s⁻¹ and the kon came out at 1.8e+06 M⁻¹ s⁻¹.

B18: AS11947 sdAb (VHH)
VHH: DVQLVESGGGLVQAGDSLRLTCSASGRTFISYAVGWFRQAPGTEREFVAGIRWNGISTDYTDSVKGRFTISRDNAKNTVYLQMNSLKPEDTAIYYCAAHRTIATIPNKYEYDHWGQGTQVTVSS
notes: His6-tagged llama sdAb
For the molecule B18, in assay [1], the “EC50 of PD-L1-based blockade assay” value amounted to 77.2 nM. Besides, in assay [2], the Kd was determined as 0.617 nM, the koff was 0.00118 s⁻¹ and the on-rate constant (kon) is 1.92e+06 M⁻¹ s⁻¹.

For the origin of these results see patent US20240101716A1 (LA NOVA MEDICINES DEVELOPMENT, published 2024).
